In article PMC9142583, “Structural basis for broad anti-phage immunity by DISARM” (Nature Communications, 2022):

Columns and labels:
DrmA;DrmB [1] = target: T1, DrmA;DrmB (Serratia sp. SCBI;Serratia sp. SCBI, UniProt A0A979HMQ0;A0A979HMQ1 1-1325;1-619, |); experiment: cryo-EM; 1 mM ADP; EMSA: 150 mM NaCl, 25 mM HEPES pH 7.4, 30 min room temperature, 5 nM DNA; 1.5% agarose, 1x TBE; settings: protein: recombinant;recombinant; tags: none stated;tagged (Ni-NTA purification); copies: 1;1; label: none; hairpin; 19-bp stem, 5-nt loop, 5' tail 7 nt, 3' tail 21 nt (Methods: 6 and 20)
DrmA;DrmB [2] = target: T1, DrmA;DrmB; experiment: EMSA; 1 µM protein; EMSA: 150 mM NaCl, 25 mM HEPES pH 7.4, 30 min room temperature, 5 nM DNA; 1.5% agarose, 1x TBE; settings: protein: recombinant;recombinant, tags: none stated;tagged (Ni-NTA purification), copies: 1;1, label: 5'-Cy5 on strand 1
[3] = target: T2, DrmA(∆loop) / DrmA(∆TL);DrmB (Serratia sp. SCBI;Serratia sp. SCBI, UniProt A0A979HMQ0;A0A979HMQ1 1-1325;1-619, del181-233|); experiment: as above; settings: protein: recombinant;recombinant, tags: none stated;tagged (Ni-NTA purification), copies: 1;1, label: 5'-Cy5 on strand 1
[4] = target: T2, DrmA(∆loop) / DrmA(∆TL);DrmB; experiment: EMSA; no dissociation smear; second super-shift at 1 µM or higher; EMSA: 150 mM NaCl, 25 mM HEPES pH 7.4, 30 min room temperature, 5 nM DNA; 1.5% agarose, 1x TBE; settings: protein: recombinant;recombinant; tags: none stated;tagged (Ni-NTA purification); copies: 1;1; label: 5'-Cy5; single strand
DrmA;DrmB [5] = target: T1, DrmA;DrmB; experiment: EMSA; binding at 1 µM protein or higher; smeared (dissociation); EMSA: 150 mM NaCl, 25 mM HEPES pH 7.4, 30 min room temperature, 5 nM DNA; 1.5% agarose, 1x TBE; settings: protein: recombinant;recombinant; tags: none stated;tagged (Ni-NTA purification); copies: 1;1; label: 5'-Cy5; single strand

B1: DNA stem loop (forked hairpin) (structured_DNA)
DNA: TTTTTTTCATCGATGAGCACTGCTATTCCCTAGCAGTGCTCATCGATGATTTTCATCGATGAGCGGTTTT
modifications: none (unmethylated)
binding result (DrmA;DrmB [1]): binds

B2: 3'ovh DNA (75-nt + 5' block) (mixed)
DNA 1: ATTTTGACAGCCCACATGGCTTGATGAGTGGCGCACTCGCCAGCCTGAGCATGGCGAAAACTCCTCCAGTCTGCT
DNA 2: GCCATGTGGGCTGTCAAAAT
binding result (DrmA;DrmB [2]; 3' overhang 55 nt): no binding | binding result ([3]; 3' overhang 55 nt): binds

B3: 5'ovh DNA (75-nt + 3' block) (mixed)
DNA 1: ATTTTGACAGCCCACATGGCTTGATGAGTGGCGCACTCGCCAGCCTGAGCATGGCGAAAACTCCTCCAGTCTGCT
DNA 2: AGCAGACTGGAGGAGTTTTC
binding result (DrmA;DrmB [2]; 5' overhang 55 nt): binds | binding result ([3]; 5' overhang 55 nt): binds

B4: 75-nt Cy5 ssDNA (ssDNA)
DNA: ATTTTGACAGCCCACATGGCTTGATGAGTGGCGCACTCGCCAGCCTGAGCATGGCGAAAACTCCTCCAGTCTGCT
binding result [4]: binds | binding result (DrmA;DrmB [5]): binds

B5: 75-bp dsDNA (dsDNA)
DNA 1: ATTTTGACAGCCCACATGGCTTGATGAGTGGCGCACTCGCCAGCCTGAGCATGGCGAAAACTCCTCCAGTCTGCT
DNA 2: AGCAGACTGGAGGAGTTTTCGCCATGCTCAGGCTGGCGAGTGCGCCACTCATCAAGCCATGTGGGCTGTCAAAAT
binding result (DrmA;DrmB [2]; blunt): no binding | binding result ([3]; blunt): binds
